Results published in PMC3115872, “Characterization of the expression, promoter activity and molecular architecture of fibin” (BMC Biochemistry, 2011).

Molecular target: the molecule itself
Test: non-reducing SDS-PAGE with Western blot; lysates of transfected COS-7 cells harvested after 72 h; equal amounts of protein separated by SDS-PAGE under non-reducing conditions; immunoblot with anti-fibin-2 antibody

B1: fibin (mouse), wild type (natural protein, UniProt Q9CQS3 19-217, looked up)
chain: YFDGPLYPEMSNGTLHHYFVPDGDYEENDDPEKCQLLFRVSDRRRCSQGEGGQASSLLSLTLREEFTVLGRQVEDAGRVLEGISKSISYDLDGEESYGKYLRRESHQIGDAYSNSDKSLTELESKFKQGQEQDSRQESRLNEDFLGMLVHTRSLLKETLDISVGLRDKYELLAHTIRSHGTRLGRLKSDYLEGGAQKTG
modifications: N-glycosylated at Asn30
notes: mouse fibin; also called WT fibin; wild-type fibin; source: COS-7, transfected (pcDps vector), in lysate
stoichiometry N: 2
